Target: the molecule itself
Assay: crystal structure; hanging drop vapor diffusion; protein 7 mg/ml in 50 mM Tris pH 8.0, 100 mM NaCl; precipitant 0.1 M MES pH 6.5, 2.0 M potassium acetate; 2.1Å native dataset, phased from a Se-Met SAD dataset

B1: ID2 HLH (residues 24–82) with a C-terminal 14 amino acid stabilising polypeptide (domain or fragment, human)
chain: RSKTPVDDPMSLLYNMNDCYSKLKELVPSIPQNKKVSKMEILQHVIDYILDLQIALDSHLKPSFLVQSGDIAS
notes: ID2, human, HLH domain, residues 24–82, cloned from full-length cDNA (Genecopoeia Z0585); C-terminal 14 amino acid polypeptide added to increase stability; Expressed from pDest-565 with a TEV site at the N terminus of ID2 HLH; The native crystal is called ID2-Nterm-HLH in the methods, and a Se-Met form (ID2-HLH-Se-Met) was used for phasing; also called wild type ID2; ID2 WT; source: E. coli …
  stoichiometry N: 2

— PMC3484135, “A Divalent Ion Is Crucial in the Structure and Dominant-Negative Function of ID Proteins, a Class of Helix-Loop-Helix Transcription Regulators” (PLoS ONE, 2012)
